Measurements: paper PMC5123862

Assays:
[1] = target: Wild-type PCNA (human) (human) (UniProt P12004)
[2] = target: Monoubiquitinated PCNA ((Ub)3-PCNA): a single ubiquitin moiety on K164 of each monomer within a homotrimeric clamp ring (human) (UniProt P12004)

Sequence of Wild-type PCNA (human) (human) (P12004 whole entry): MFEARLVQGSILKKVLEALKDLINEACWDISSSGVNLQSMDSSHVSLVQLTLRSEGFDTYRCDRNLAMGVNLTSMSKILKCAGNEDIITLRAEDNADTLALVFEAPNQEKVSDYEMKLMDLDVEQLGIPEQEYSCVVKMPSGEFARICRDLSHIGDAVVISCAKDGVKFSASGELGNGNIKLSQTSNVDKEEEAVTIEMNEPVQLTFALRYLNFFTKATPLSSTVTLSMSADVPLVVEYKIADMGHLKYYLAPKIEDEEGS

B1: Pol η (human DNA polymerase eta, full length, wild type, unlabeled) (enzyme)
chain: MATGQDRVVALVDMDCFFVQVEQRQNPHLRNKPCAVVQYKSWKGGGIIAVSYEARAFGVTRSMWADDAKKLCPDLLLAQVRESRGKANLTKYREASVEVMEIMSRFAVIERASIDEAYVDLTSAVQERLQKLQGQPISADLLPSTYIEGLPQGPTTAEETVQKEGMRKQGLFQWLDSLQIDNLTSPDLQLTVGAVIVEEMRAAIERETGFQCSAGISHNKVLAKLACGLNKPNRQTLVSHGSVPQLFSQMPIRKIRSLGGKLGASVIEILGIEYMGELTQFTESQLQSHFGEKNGSWLYAMCRGIEHDPVKPRQLPKTIGCSKNFPGKTALATREQVQWWLLQLAQELEERLTKDRNDNDRVATQLVVSIRVQGDKRLSSLRRCCALTRYDAHKMSHDAFTVIKNCNTSGIQTEWSPPLTMLFLCATKFSASAPSSSTDITSFLSSDPSSLPKVPVTSSEAKTQGSGPAVTATKKATTSLESFFQKAAERQKVKEASLSSLTAPTQAPMSNSPSKPSLPFQTSQSTGTEPFFKQKSLLLKQKQLNNSSVSSPQQNPWSNCKALPNSLPTEYPGCVPVCEGVSKLEESSKATPAEMDLAHNSQSMHASSASKSVLEVTQKATPNPSLLAAEDQVPCEKCGSLVPVWDMPEHMDYHFALELQKSFLQPHSSNPQVVSAVSHQGKRNPKSPLACTNKRPRPEGMQTLESFFKPLTH
[1]
  abundance of the pol η TLS complex (P2, probability of insertion at i = 2) on undamaged TT P/T DNA: increase in the presence of PCNA: 2.53 fold
  primer extension by pol η on the undamaged TT P/T DNA substrate under single turnover conditions: stimulation in the presence of PCNA against pol η alone: 2.02 fold
[2]
  abundance of the pol η TLS complex (P2, probability of insertion at i = 2) on undamaged TT P/T DNA: increase in the presence of (Ub)3-PCNA: 2.75 fold
